Literature values as cited in paper PMC11603612.

Assays:
Asp121 = Asp121 (UniProt position 147, VPVHFDASV--)
Asp14 = Asp14 (UniProt position 40, ERQHMDSSTSA)
Asp38 = Asp38 (UniProt position 64, RNLTKDRCKPV)
Asp53 = Asp53 (UniProt position 79, HESLADVQAVC)
Asp83 = Asp83 (UniProt position 109, TMSITDCRETG)
Glu111 = Glu111 (UniProt position 137, IIVACEGNPYV)
Glu2 = Glu2 (UniProt position 28, PSLGKETAAAK)
Glu49 = Glu49 (UniProt position 75, NTFVHESLADV)
Glu86 = Glu86 (UniProt position 112, ITDCRETGSSK)
Glu9 = Glu9 (UniProt position 35, AAAKFERQHMD)
His105 = His105 (UniProt position 131, TQANKHIIVAC)
His119 = His119 (UniProt position 145, PYVPVHFDASV)
His12 = His12 (UniProt position 38, KFERQHMDSST)
His48 = His48 (UniProt position 74, VNTFVHESLAD)
Asp23 = Asp23 (UniProt position 23, IKNVADGYANN)
Asp8 [1] = biological target: Asp8 (UniProt position 8, VIFLKDVKGKG)
Glu17 = Glu17 (UniProt position 17, KGKKGEIKNVA)
Glu38 = Glu38 (UniProt position 38, QGLAIEATPAN)
Glu48 [2] = biological target: Glu48 (UniProt position 48, NLKALEAQKQK)
Glu54 = Glu54 (UniProt position 54, AQKQKEQRQAA)
Asp129 = Asp129 (UniProt position 112, EEQNNDALSPA)
Asp145 = Asp145 (UniProt position 128, AEHNLDASAIK)
Asp162 = Asp162 (UniProt position 145, RLTREDVEKHL)
Glu141 = Glu141 (UniProt position 124, RRLLAEHNLDA)
Glu161 = Glu161 (UniProt position 144, GRLTREDVEKH)
Glu164 = Glu164 (UniProt position 147, TREDVEKHLAK)
His142 = His142 (UniProt position 125, RLLAEHNLDAS)
His166 = His166 (UniProt position 149, EDVEKHLAKAP)
Asp10 = Asp10 (UniProt position 10, VEIFTDGSCLG)
Asp108 = Asp108 (UniProt position 108, LWQRLDAALGQ)
Asp134 = Asp134 (UniProt position 134, ENERCDELARA)
Asp70 = Asp70 (UniProt position 70, VILSTDSQYVR)
Asp94 = Asp94 (UniProt position 94, GWKTADKKPVK)
Glu119 = Glu119 (UniProt position 119, HQIKWEWVKGH)
Glu129 [3] = biological target: Glu129 (UniProt position 129, HAGHPENERCD)
Glu131 = Glu131 (UniProt position 131, GHPENERCDEL)
Glu135 [4] = biological target: Glu135 (UniProt position 135, NERCDELARAA)
Glu147 = Glu147 (UniProt position 147, MNPTLEDTGYQ)
Glu154 = Glu154 (UniProt position 154, TGYQVEV----)
Glu32 = Glu32 (UniProt position 32, RYRGREKTFSA)
Glu48 [5] = biological target: Glu48 (UniProt position 48, TNNRMELMAAI)
Glu57 [6] = biological target: Glu57 (UniProt position 57, AIVALEALKEH)
Glu6 [7] = biological target: Glu6 (UniProt position 6, MLKQVEIFTDG)
Glu61 = Glu61 (UniProt position 61, LEALKEHCEVI)
Glu64 = Glu64 (UniProt position 64, LKEHCEVILST)
His124 = His124 (UniProt position 124, EWVKGHAGHPE)
His127 = His127 (UniProt position 127, KGHAGHPENER)
His62 = His62 (UniProt position 62, EALKEHCEVIL)
Asp107 = Asp107 (UniProt position 134, DGGTYDIYTTT)
Asp12 = Asp12 (UniProt position 39, WQNWTDGGGIV)
Asp120 = Asp120 (UniProt position 147, NAPSIDGDRTT)
Asp122 = Asp122 (UniProt position 149, PSIDGDRTTFT)
Asp5 = Asp5 (UniProt position 32, SAASTDYWQNW)
Glu79 = Glu79 (UniProt position 106, RSPLIEYYVVD)
His157 = His157 (UniProt position 184, NAWKSHGMNLG)
Asp44 = Asp44 (UniProt position 794, ENHLSDEDFKA)
Asp46 = Asp46 (UniProt position 796, HLSDEDFKAVF)
Glu45 = Glu45 (UniProt position 795, NHLSDEDFKAV)
Glu72 = Glu72 (UniProt position 822, QNLKKEKGLF-)
Asp19 = Asp19 (UniProt position 101, LIKAIDGDTVK)
Asp21 = Asp21 (UniProt position 103, KAIDGDTVKLM)
Asp40 = Asp40 (UniProt position 122, RLLLVDTPETK)
Asp95 = Asp95 (UniProt position 177, AYIYADGKMVN)
Glu10 = Glu10 (UniProt position 92, KKLHKEPATLI)
Glu101 = Glu101 (UniProt position 183, GKMVNEALVRQ)
Glu122 = Glu122 (UniProt position 204, PNNTHEQHLRK)
Glu129 [8] = biological target: Glu129 (UniProt position 211, HLRKSEAQAKK)
Glu135 [9] = biological target: Glu135 (UniProt position 217, AQAKKEKLNIW)
Glu43 = Glu43 (UniProt position 125, LVDTPETKHPK)
Glu52 = Glu52 (UniProt position 134, PKKGVEKYGPE)
Glu57 [10] = biological target: Glu57 (UniProt position 139, EKYGPEASAFT)
Glu67 = Glu67 (UniProt position 149, TKKMVENAKKI)
Glu73 = Glu73 (UniProt position 155, NAKKIEVEFDK)
Glu75 = Glu75 (UniProt position 157, KKIEVEFDKGQ)
His121 = His121 (UniProt position 203, KPNNTHEQHLR)
His8 = His8 (UniProt position 90, STKKLHKEPAT)
Asp16 = Asp16 (UniProt position 16, FQEALDAAGDK)
Asp20 = Asp20 (UniProt position 20, LDAAGDKLVVV)
Asp58 = Asp58 (UniProt position 58, IFLEVDVDDCQ)
Asp60 = Asp60 (UniProt position 60, LEVDVDDCQDV)
Asp61 = Asp61 (UniProt position 61, EVDVDDCQDVA)
Asp64 = Asp64 (UniProt position 64, VDDCQDVASEC)
Glu103 = Glu103 (UniProt position 103, EATINELV---)
Glu13 = Glu13 (UniProt position 13, KTAFQEALDAA)
Glu47 = Glu47 (UniProt position 47, FHSLSEKYSNV)
Glu56 = Glu56 (UniProt position 56, NVIFLEVDVDD)
Glu6 [11] = biological target: Glu6 (UniProt position 6, MVKQIESKTAF)
Glu68 = Glu68 (UniProt position 68, QDVASECEVKC)
Glu70 = Glu70 (UniProt position 70, VASECEVKCMP)
Glu88 = Glu88 (UniProt position 88, GQKVGEFSGAN)
Glu95 = Glu95 (UniProt position 95, SGANKEKLEAT)
Glu98 = Glu98 (UniProt position 98, NKEKLEATINE)
Asp8 [12] = tested on: Asp8

Ribonuclease A (RNaseA) (Bos taurus (inferred))
pKa (Asp121): 3.1
pKa (Asp14): 2
pKa (Asp38): 3.5
pKa (Asp53): 3.9
pKa (Asp83): 3.5
pKa (Glu111): 3.6
pKa (Glu2): 2.8
pKa (Glu49): 4.7
pKa (Glu86): 4.1
pKa (Glu9): 4
pKa (His105): 6.7
pKa (His119): 6.1
pKa (His12): 6.2
pKa (His48): 6

N-terminal domain of ribosomal protein L9 (NTL / NTL9) (Geobacillus stearothermophilus (inferred))
pKa (Asp23): 3.1
pKa (Asp8 [1]): 3
pKa (Glu17): 3.6
pKa (Glu38): 4
pKa (Glu48 [2]): 4.2
pKa (Glu54): 4.2

BBL (peripheral subunit-binding domain of 2-oxoglutarate dehydrogenase E2) (Escherichia coli (inferred))
pKa (Asp129): 3.9
pKa (Asp145): 3.7
pKa (Asp162): 3.2
pKa (Glu141): 4.5
pKa (Glu161): 3.7
pKa (Glu164): 4.5
pKa (His142): 6.5
pKa (His166): 5.4

Ribonuclease HI (RNaseH) (Escherichia coli)
pKa (Asp10): 6.1
pKa (Asp108): 3.2
pKa (Asp134): 4.1
pKa (Asp70): 2.6
pKa (Asp94): 3.2
pKa (Glu119): 4.1
pKa (Glu129 [3]): 3.6
pKa (Glu131): 4.3
pKa (Glu135 [4]): 4.3
pKa (Glu147): 4.2
pKa (Glu154): 4.4
pKa (Glu32): 3.6
pKa (Glu48 [5]): 4.4
pKa (Glu57 [6]): 3.2
pKa (Glu6 [7]): 4.5
pKa (Glu61): 3.9
pKa (Glu64): 4.4
pKa (His124): 7.1
pKa (His127): 7.9
pKa (His62): 7

Xylanase (family 11 endo-1,4-beta-xylanase) (Bacillus circulans (inferred))
pKa (Asp107): 2.7
pKa (Asp12): 2.5
pKa (Asp120): 3.2
pKa (Asp122): 3.6
pKa (Asp5): 3
pKa (Glu79): 4.6
pKa (His157): 6.5

Villin headpiece subdomain HP36 (Gallus gallus (inferred))
pKa (Asp44): 3.1
pKa (Asp46): 3.5
pKa (Glu45): 4
pKa (Glu72): 4.4

Staphylococcal nuclease (SNase) (Staphylococcus aureus (inferred))
pKa (Asp19): 2.2
pKa (Asp21): 6.5
pKa (Asp40): 3.9
pKa (Asp95): 2.2
pKa (Glu10): 2.8
pKa (Glu101): 3.8
pKa (Glu122): 3.9
pKa (Glu129 [8]): 3.8
pKa (Glu135 [9]): 3.8
pKa (Glu43): 4.3
pKa (Glu52): 3.9
pKa (Glu57 [10]): 3.5
pKa (Glu67): 3.8
pKa (Glu73): 3.3
pKa (Glu75): 3.3
pKa (His121): 5.2
pKa (His8): 6.5

Thioredoxin (residue set of human thioredoxin) (Homo sapiens (inferred from residue set; not stated))
pKa (Asp16): 4
pKa (Asp20): 3.8
pKa (Asp58): 5.3
pKa (Asp60): 2.8
pKa (Asp61): 4.2
pKa (Asp64): 3.2
pKa (Glu103): 4.4
pKa (Glu13): 4.4
pKa (Glu47): 4.1
pKa (Glu56): 5.1
pKa (Glu6 [11]): 4.8
pKa (Glu68): 4.9
pKa (Glu70): 4.6
pKa (Glu88): 3.7
pKa (Glu95): 4.1
pKa (Glu98): 3.9

Turkey ovomucoid third domain (OMTKY3) (Meleagris gallopavo (inferred))
pKa (Asp27): 2.3
pKa (Asp8 [12]): 2.7
pKa (Glu11): 4.1
pKa (Glu20): 3.2
pKa (Glu44): 4.8
pKa (His53): 7.5
